# Source: patent publication US20220273710A1 (AUTOLUS, published 2022)
# T1: Recombinant purified CD79b (R&D systems) (human, UniProt P40259 29-159)
# T1 construct: Bought protein
# T1 sequence: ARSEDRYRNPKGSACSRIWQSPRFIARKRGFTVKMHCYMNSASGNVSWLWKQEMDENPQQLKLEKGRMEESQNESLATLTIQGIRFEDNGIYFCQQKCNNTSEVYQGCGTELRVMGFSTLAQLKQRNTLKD
# Target: T1, Recombinant purified CD79b (R&D systems)
# Assay: SPR, Biacore 8K, antibody immobilised on CM5 chip, CD79b as analyte, 25° C, 1:1 Langmuir fit
# From the text: Recombinant anti-CD79b antibodies Polatuzumab and newly generated antibodies 2E8, 3H2, and 7G4 were immobilised on individual flow cells on a Series S CM5 sensor chip (GE Healthcare) to a density of 150-280 RU using a Biacore 8K instrument. HBS-P+buffer was used as running buffer under all experimental conditions. Recombinant purified CD79b (R&D systems) at known concentrations was used as the ‘analyte’ and injected over the respective flow cells with 150s contact time and 300s dissociation, at 30 μl/minute of flow rate and a constant temperature of 25° C. In each experiment, flow cell 1 was unmodified and used for reference subtraction. A ‘0 concentration’ sensorgram of buffer alone was used as a double reference subtraction to factor for drift. Data were fit to a 1:1 Langmuir binding model.
Binder,Kd [nM],koff [s⁻¹],kon [M⁻¹ s⁻¹]
"2E8 (antibody, mouse IgG2a, V domains shown, also called 2E8 antibody; clone 2E8) VH: AVQLVESGGGLVQPKESLKISCAASGFTFSNAAMYWVRQAPGKGLEWVARIRTKPNNYATNYADSVKGRFTISRDDSKSMVYLQMDNLKTEDTAMYYCTYYDGSSYAMDAWGQGTSVTVSS VL: DVVLTQTPVSLSVTLGDQASISCRSSQSLEYSDGYTYLDWYLQKPGQSPQLLIYEVSNRFSGVPDRFIGSGSGTDFTLKISRVEPEDLGVYYCFQATHDPYTFGAGTKLEIK",7.11,0.0805,1.13e+07
"7G4 (antibody, mouse IgG2a, V domains shown, also called 7G4 antibody; clone 7G4) VH: AVQLVESGGGLVQPKESLKISCAASGFTFSNAAMYWVRQAPGKGLEWVARIRTKPNNYATNYADSVKGRFTISRDDSKSMVYLQMDNLKTEDTAMYYCTYYDGSSYAMDAWGQGTSVTVSS VL: DVVLTQTPVSLSVTLGDQASISCRSSQSLEYSDGYTYLDWYLQKPGQSPQLLIYEISNRFSGVPDRFIGSGSGTDFTLKISRVEPEDLGVYYCFQATHDPYTFGAGTKLEIK",3.1,,

# Results, then the binder that gave them:
Kd [nM],koff [s⁻¹],kon [M⁻¹ s⁻¹],Binder
6.88,0.00806,1.17e+06,"Polatuzumab (antibody, V domains shown, polatuzumab'; also called humanised anti-CD79b 2F2; anti-CD79b antibody polatuzumab) VH: EVQLVESGGGLVQPGGSLRLSCAASGYTFSSYWIEWVRQAPGKGLEWIGEILPGGGDTNYNEIFKGRATFSADTSKNTAYLQMNSLRAEDTAVYYCTRRVPIRLDYWGQGTLVTVSS VL: DIQLTQSPSSLSASVGDRVTITCKASQSVDYEGDSFLNWYQQKPGKAPKLLIYAASNLESGVPSRFSGSGSGTDFTLTISSLQPEDFATYYCQQSNEDPLTFGQGTKVEIKR"
2.62,0.00431,1.64e+06,"3H2 (antibody, mouse IgG2a, V domains shown, also called 3H2 antibody; clone 3H2) VH: AVQLVESGGGLVQPKESLKLSCAASGFTFSHTAMYWVRQAPGKGLECVARIRIQPKNYATYYADSVKGRFTISRDDSKSMVYLQMDNLKTEDTAMYYCTAAGFGFDYWGQGVMVTVSS VL: DVVLTQTPVSLSVTLGDQASISCRSSQSLEYSDGNTYLEWYLQKPGQSPQLLIYEVSKRFSGVPDRFIGSGSGTDFTLKISRVEPEDLGIYYCLQATHDPFTFGSGTKLEIK"
